Patent US10274499B2, “SH2 domain variants” (THE UNIVERSITY OF WESTERN ONTARIO, priority 2012, dated 2019)
Changes are numbered by the printed parent chain. Numbers in names are those of the source. Blank lines part the entries; values can stand above or below the molecule they belong to.

Assays:
[1] = system: seven fluorescein-labeled pTyr-containing peptides; assay: in-solution fluorescence polarization binding assay, set of seven peptides; details: average over seven peptides, relative to the wild type of the same SH2 domain
Protocol: (§1) Each peptide was synthesized on the TentaGel amide resin (INTAVIS Inc.) and N-terminally labeled with fluorescein using NHS-fluorescein (Thermo Fisher Scientific). Each of the 13 variant and the wild-type SH2 domain was produced by overexpression in the Escherichia coli BL21(DE3) strain cultured in LB media (EMD Chemicals). Expression was induced by 0.3 mM isopropyl β-D-1-thiogalactopyranoside (IPTG), and the cell culture was incubated for 5 hours at 37° C. The cells were harvested by centrifuge, and broken on ice, in buffer solution containing 20 mM sodium phosphate, 0.1 M NaCl, 20 mM imidazole, 1 mg/ml lysozyme and 1% Triton-X 100, adjusted at pH 7.8. Affinity purification was performed with the Ni-NTA agarose resin (Qiagen Inc.), according to the manufacturer's instruction. The purified material was dialyzed against phosphate-buffered saline (PBS), pH 7.4, at 4° C. overnight. Measurements of fluorescence polarization were conducted by titrating the SH2 domain concentration, while keeping the peptide concentration constant. Kd values were calculated with the GraphPad Prism software, by assuming the one-site binding model (GraphPad Software).
(§2) The determined Kd values of interaction between the 14 SH2 domains (including the wild-type) and seven peptides were listed in FIG. 7(a).
The wild-type and variant Src SH2 domains were expressed in E. coli BL21(DE3) strain grown in the LB media, by inducing protein expression with 0.3 mM IPTG, and incubating the cell culture at 30° C. for six hours. Cells were harvested by centrifuge, and broken on ice in buffer solution containing 20 mM sodium phosphate, 0.1 M NaCl, 20 mM imidazole, 1 mg/ml lysozyme, 1% Triton-X 100, adjusted at pH 7.8. Affinity purification was performed with the Ni-NTA, agarose resin, according to the manufacturer's instruction. […]
Fluorescence polarization assay was conducted to determine Kd values of the interaction between the wild-type or variant Src SH2 domain and seven fluorescein-labeled pTyr-containing peptides (FIG. 9a).

[2] = system: non-phosphorylated fluorescein-GGYGG peptide (SEQ ID NO: 24); assay: fluorescence polarization binding assay, non-phosphorylated GGYGG peptide
Protocol: as §1, §2

EGFR = target: T1, EGFR (Homo sapiens, UniProt P00533); assay: immunoprecipitation of GFP-fused SH2 domains with EGFR in HEK 293 cells; format: cell-based; details: GFP-fusion expressed in HEK 293 cells, EGF 100 ng/ml, anti-GFP and anti-EGFR antibodies
T1 construct: endogenous in cells; host or cells: HEK 293
Text: The three variant SH2 domains mentioned in the previous sentence were dubbed as 8V/10A/15L-substituted SH2 domains, or the TrM SH2 domains, in the following descriptions, as well as in FIG. 11 and FIG. 12. The wild-type (Wt) and TrM SH2 domains, subcloned into the pEGFPC2 vector, were expressed in the HEK 293 cells as a GFP-fusion protein. Methods used in this and the following sections are described below.
Anti-GFP rabbit polyclonal antibody was purchased from Sigma-Aldrich. Anti-EGFR rabbit polyclonal antibody was purchased from Millipore. Anti-p44/42 MAPK (Erk1/2) mouse monoclonal antibody, and anti-phospho-p44/42 MAPK (Thr202/Tyr204) mouse monoclonal antibody were purchased from Cell Signaling. HEK 293 cells were grown in Dulbecco's modification of Eagle's medium (DMEM, Sigma-Aldrich) supplemented with 10% fetal bovine serum (FBS, SAFC Biosciences), 50 units/ml penicillin and 50 μg/ml streptomycin (GIBCO Invitrogen Corp.) in a humidified atmosphere of 5% CO2 in air at 37° C. EGF (Invitrogen) at a final concentration of 100 ng/ml was added to the medium at the indicated time point. Transient transfections were carried out with jet-PEI (PolyPlus-Transfection; Illkirch, France) according to manufacturer's instruction.
HEK 293 cells were transfected with the SH2 domain construct subcloned in the pEGFPC2 vector, and incubated in serum-containing full medium for 24 h followed by serum-starvation for 16 h and then EGF (100 ng/ml) treatment for 10 min, pervanadate treatment for 10 min. The whole cell lysates were prepared and subjected to IB analysis to detect phosphorylated Erk and total Erk.
HEK 293 cells were lysed with cold lysis buffer (1% NP-40, 50 mM Tris-HCl pH 7.4, 150 mM NaCl, 2 mM EDTA, 50 mM NaF, 10% Glycerol and protease inhibitor cocktail diluted at 1:1000). After centrifugation at 13,000*g for 15 min, the supernatants were collected. After clearance of the lysate with appropriate pre-immune serum and protein G (Roche), immunoprecipitation (IP) and immunoblotting (IB) were performed. […]

[3] = system: tyrosine-phosphorylated proteins from HeLa cell lysate; assay: GST pulldown assay, pervanadate-treated HeLa cell lysate; format: binding; details: GST fusion, compared to the Wt SH2 domain, 4G10 immunoblot
Protocol: The wild-type (Wt) and triple mutant (TrM) Fyn SH2 domains (Ala^139-Gly^249) were respectively subcloned into the pETM30 vector (Dümmler, et al. Microb. Cell Fact. 4, 34 (2005)). The Fyn SH2 domain constructs contain a FLAG tag sequence ([…]) (SEQ ID NO: 27) at the C-terminus. To create the GST control vector, a stop codon was inserted after the GST tag sequence of the original pETM30 vector. The GST and GST-SH2 proteins were expressed in E. coli BL21(DE3). HeLa cells were treated with 50 μM pervanadate for 10 min at 37° C. HeLa cells were lysed on ice in lysis buffer containing 0.5% NP-40, 50 mM HEPES pH 7.4, 1 mM magnesium chloride, 150 mMKCl, and the COMPLETE protease inhibitor cocktail (Roche). The GST pulldown assay was conducted as described (Li et al. J. Biol. Chem. 278, 3852-3859 (2003)).

[4] = target: fluorescein-GGpYGG peptide (SEQ ID NO: 23); assay: fluorescence polarization binding assay, GGpYGG peptide
[5] = system: phosphorylated proteins (ALK) from H370 cell lysate; assay: GST pulldown, H370 cell lysate with ALK activation by mAb46; format: binding, human; details: GST fusion, compared to the Wt
Protocol: The Wt human Src (hSrc) SH2, the TrM hSrc SH2, and Wt Rous sarcoma virus Src (vSrc) SH2 domains were prepared, respectively, as GST tag fusion proteins. The vSrc SH2 domain is almost identical to the hSrc SH2 domain (there are three-residue differences in the SH2 domain region, and the differences are located outside of the target-binding surface). 5 μg of the GST-tagged SH2 domain was incubated with 500 μg of H370 cell lysate treated with or without the ALK activation antibody mAb-46 at room temperature for 30 min. 20 μl of glutathione sepharose beads was then added for another 30 minincubation at room temperature. As a positive control, the anti-pTyr antibody P-Tyr-100 (Cell Signaling, #9411) was used for immunoprecipitation. 4 μl of the P-Tyr-100 antibody was incubated with 500 μg H370 cell lysate treated with or without the ALK activation antibody mAb-46 for 2 hours at 4° C. Next, 20 μl protein G beads was added for another incubation for two hours at 4° C. The glutathione beads or protein G beads were washed with 1×PBS (phosphate buffered saline) three times. The beads were added to 30 μl 2×SDS loading buffer and boiled for 10 min. The samples were resolved on an 8% Bis-Tris SDS-PAGE gel. The gel was applied to Western blotting to transfer the samples onto PVDF membrane (Millipore) and the proteins were probed with the P-Tyr-100 antibody. […]

[6] = system: tyrosine-phosphorylated proteins of U937 cell lysate; assay: Far-Western blotting, pervanadate-treated U937 cell lysate; format: binding, human; details: GST fusion 3.5 μg/ml
Protocol: The GST protein and GST-Src SH2 TrM were prepared as 3.5 μg/ml concentration in the TBS buffer (50 mM Tris-HCl pH 7.2, 137 mM NaCl). The cultured U937 cells were treated with or without 50 μM pervanadate in PBS for 10 min at 37° C. The cells were lysed in the buffer (0.5% NP-40, 50 mM HEPES pH 7.4, 1 mM magnesium chloride, 150 mMKCl) with sonication on ice, and supernatant was loaded on an SDS-PAGE gel for separation and following transfer to the PVDF membrane (Millipore). The membrane was blocked with 5% milk in TBS-T (0.5% Tween-20 in TBS) overnight at 4° C., and probed with 3.5 μg/ml GST proteins for 1 hour at room temperature. The membrane was washed with TBS-T, and incubated with anti-GST antibody-HRP (horseradish peroxidase) conjugate (Sigma, #A7340) for 1 hour at room temperature. The signal from HRP was detected as enhanced chemiluminescence on an X-ray film.

A549 cells = assay: cell viability after gold nanoparticle delivery of SH2 protein, EGF treatment, A549; format: cell-based; details: 100 ng/ml EGF, compared with the Wt SH2 domain
Protocol: (§3) The hexa-histidine-tagged SrcWt and TrM proteins were purified to homogeneity in 5 mM HEPES buffer (pH 7.6). 1 nM of gold nanoparticle was mixed with 100 nMWt or TrM variant protein. The MCF-7 and A549 cells were starved six hours before treatment. The cells were then treated with 100 ng/ml EGF for 20 hours. The nanoparticle-protein mixture was applied to cells. Cells were trypsinized and stained using 0.4% trypan blue (Sigma-Aldrich) and viable and total cell numbers were counted haemacytometer with the use of a microscope according to manufacturer's instruction.

MCF-7 cells = assay: cell viability after gold nanoparticle delivery of SH2 protein, EGF treatment, MCF-7; format: cell-based; details: MCF-7 (no EGF receptor), 100 ng/ml EGF
Protocol: as §3

Sequence of non-phosphorylated fluorescein-GGYGG peptide (SEQ ID NO: 24) (as listed by the source): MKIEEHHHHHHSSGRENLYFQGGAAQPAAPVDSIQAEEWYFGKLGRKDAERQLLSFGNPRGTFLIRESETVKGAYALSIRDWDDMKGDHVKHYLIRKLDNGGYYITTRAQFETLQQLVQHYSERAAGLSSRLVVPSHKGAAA
Sequence of phosphorylated proteins (ALK) from H370 cell lysate (Q9UM73 1060-1620 limits assumed): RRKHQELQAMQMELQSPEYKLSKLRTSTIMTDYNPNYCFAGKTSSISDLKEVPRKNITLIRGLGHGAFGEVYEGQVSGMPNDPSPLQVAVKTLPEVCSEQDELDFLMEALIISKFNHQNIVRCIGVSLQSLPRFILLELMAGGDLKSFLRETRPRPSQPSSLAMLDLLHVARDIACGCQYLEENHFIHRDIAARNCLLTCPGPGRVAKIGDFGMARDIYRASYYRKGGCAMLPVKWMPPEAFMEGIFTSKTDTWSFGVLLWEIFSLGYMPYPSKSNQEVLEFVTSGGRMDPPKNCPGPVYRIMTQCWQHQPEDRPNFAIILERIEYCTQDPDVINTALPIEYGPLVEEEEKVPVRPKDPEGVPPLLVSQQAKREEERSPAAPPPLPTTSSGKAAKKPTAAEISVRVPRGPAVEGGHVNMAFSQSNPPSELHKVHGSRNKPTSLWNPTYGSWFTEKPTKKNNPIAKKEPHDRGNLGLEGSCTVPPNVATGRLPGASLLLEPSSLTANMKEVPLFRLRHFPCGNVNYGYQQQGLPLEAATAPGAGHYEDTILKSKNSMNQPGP

- average affinity increase, Kd[wild-type] divided by Kd[variant] [1]: 293 fold
- binding to non-phosphorylated peptide [2]: did not show detectable binding
- binding to EGFR (immunoprecipitation) (EGFR): strong binding
B1: T8V/S10A/K15L: variant Fyn SH2 domain: Thr position 8 to Val, Ser position 10 to Ala, Lys position 15 to Leu; SEQ ID NO:17 (protein)
chain: APVDSIQAEEWYFGKLGRKDAERQLLSFGNPRGTFLIRESETVKGAYALSIRDWDDMKGDHVKHYLIRKLDNGGYYITTRAQFETLQQLVQHYSERAAGLCCRLVVPCHKG
modifications: Synthetic construct T8V/S10A/K15L
- ability to bind tyrosine-phosphorylated proteins (GST pulldown) [3]: enhanced ability

- binding to EGFR (immunoprecipitation) (EGFR): strong binding
B3: A8V/S10A/K15L: variant human Grb2 SH2 domain, Met55 to Pro158 with A8V, S10A, K15L substitutions; SEQ ID NO: 22 (protein)
chain: MKPHPWFFGKIPRAKAEEMLSKQRHDGAFLIRESESVPGDFALSVKFGNDVQHFLVLRDGAGKYFLWVVKFNSLNELVDYHRSTSVSRNQQIFLRDIEQVPQQP
modifications: Synthetic construct Grb2_triple

The remaining lines, values behind:

B2: T8I/S10A/K15L: variant Fyn SH2 domain; SEQ ID NO:16 (protein)
chain: B1 chain with V43I
modifications: Synthetic construct T8I/S10A/K15L
- average affinity increase, Kd[wild-type] divided by Kd[variant] [1]: 86.4 fold

B4: T8V/C10A/K15L: variant human Src SH2 domain, position 8 Val, position 10 Ala, position 15 Leu; SEQ ID NO:21 (protein)
chain: DSIQAEEWYFGKITRRESERLLLNAENPRGTFLVRESETVKGAYALSVSDFDNAKGLNVKHYLIRKLDSGGFYITSRTQFNSLQQLVAYYSKHADGLCHRLTTVCPTSK
modifications: Synthetic construct T8V/C10A/K15L
- average affinity increase, Kd[wild-type] divided by Kd[variant] [1]: 238 fold
- Kd [4]: 0.51 µM
- binding to EGFR (immunoprecipitation) (EGFR): strong binding
- capture of phosphorylated proteins from H370 cell lysate upon stimulation [5]: substantially larger amount
- detection of tyrosine-phosphorylated proteins by Far-Western blotting [6]: broad detection of tyrosine-phosphorylated proteins
- cell viability upon EGF treatment (A549 cells): reduced cell variability
- cell viability upon EGF stimulation (MCF-7 cells): did not significantly affect cell variability
